In patent US20090042251:

T1: reduced and carboxymethylated (S54G, P55N)-RNase T1, P00651
T1 chain: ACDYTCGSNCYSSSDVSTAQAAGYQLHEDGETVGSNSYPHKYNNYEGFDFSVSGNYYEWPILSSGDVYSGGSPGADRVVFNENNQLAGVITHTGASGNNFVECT

B1: SlyD* ΔIF loop (protein)
chain: MKVAKDLVVSLAYQVRTEDGVLVDESPVSAPLDYLHGHGSLISGLETALEGHEVGDKFDVAVGANDAYGATGHPGIIPPHATLKFNVEVVAIREATEEELAHGHVHGAHDHHHDHDHDHHHHHH
B2: SlpA (protein)
chain: SESVQSNSAVLVHFTLKLDDGTTAESTRNNGKPALFRLGDASLSEGLEQHLLGLKVGDKTTFSLEPDAAFGVPSPDLIQYFSRREFMDAGEPEIGAIMLFTAMDGSEMPGVIREINGDSITVDFNHPLAGQTVHFDIEVLEIDPALEAHHHHHH
B3: SlyD* (SlyD 1-165) (protein)
chain: MKVAKDLVVSLAYQVRTEDGVLVDESPVSAPLDYLHGHGSLISGLETALEGHEVGDKFDVAVGANDAYGQYDENLVQRVPKDVFMGVDELQVGMRFLAETDQGPVPVEITAVEDDHVVVDGNHMLAGQNLKFNVEVVAIREATEEELAHGHVHGAHDHHHDHDHDHHHHHH
B4: hFKBP12-IF5 (protein)
chain: GVQVETISPGDGRTFPKRGQTCVVHYTGMLEDGKKFDSSRDRNKPFKFMLGKQEVIRGWEEGVAQMSVGQRAKLTISPDYAYGMPNPELVISVPREEFTKAGLEPQEGLYVMTDSGIAKIVSVGESEVSLDFNHPLAGKTLVFDVELLKLEHHHHHH
B5: hFKBP12-IF1 (C22A) (protein)
chain: GVQVETISPGDGRTFPKRGQTAVVHYTGMLEDGKKFDSSRDRNKPFKFMLGKQEVIRGWEEGVAQMSVGQRAKLTISPDYAYGQYDENLVQRVPKDVFMGVDELQVGMRFLAETDQGPVPVEITAVEDDHVVVDGNHMLAGQNLVFDVELLKLEHHHHHH
B6: hFKBP12-IF4 (protein)
chain: GVQVETISPGDGRTFPKRGQTAVVHYTGMLEDGKKFDSSRDRNKPFKFMLGKQEVIRGWEEGVAQMSVGQRAKLTISPDYAYGVPSPDLIQYFSRREFMDAGEPEIGAIMLFTAMDGSEMPGVIREINGDSITVDFNHPLAGQTLVFDVELLKLEHHHHHH
B7: TcFKBP18 (protein)
chain: MKVEAGDYVLFHYVGRFEDGEVFDTSYEEIARENGILVEEREYGPMWVRIGVGEIIPGLDEAIIGMEAGEKKTVTVPPEKAYGMPNPELVISVPREEFTKAGLEPQEGLYVMTDSGIAKIVSVGESEVSLDFNHPLAGKTLVFEVEVIEVKKAEEDSEA

Columns and labels:
[1] = target: reduced and carboxymethylated (S54G, P55N)-RNase T1 (UniProt P00651)
[2] = target: T1, reduced and carboxymethylated (S54G, …)

Row | Molecule | Specificity constant kcat/KM (RCM-T1 refolding assay) [2] | further results
1 | hFKBP12 | – | Specificity constant kcat/KM (RCM-T1 refolding assay) [1]: 14000 M⁻¹ s⁻¹
2 | B1 | 500 M⁻¹ s⁻¹ | specificity constant relative to SlyD* [2]: amounts to only 0.07% of SlyD*
3 | B2 | < 1000 M⁻¹ s⁻¹ | –
4 | B3 | 680000 M⁻¹ s⁻¹ | concentration at which refolding of RCM-T1 is twofold accelerated [2]: In the presence of as low as 2 nM SlyD* refolding of RCM-T1 is already twofold accelerated
5 | B4 | 660000 M⁻¹ s⁻¹ | –
6 | B5 | 2.5e+06 M⁻¹ s⁻¹ | concentration sufficient to double the folding rate of RCM-T1 [2]: Less than 1 nM FKBP12-IF1 are sufficient to double the folding rate of RCM-T1; specificity constant [2]: higher than 2.5×10^6 M^-1s^-1
7 | B6 | 850000 M⁻¹ s⁻¹ | specificity constant (kcat/KM) [2]: 800.000 M⁻¹ s⁻¹
8 | B7 | 600000 M⁻¹ s⁻¹ | –
